Measured values reported in US9340584 (GENERAL HOSPITAL, dated 2016).

T1: CD5 expressed on the cell surface (transfected HEK293T cells; Raji cells ectopically expressing wild type CD5) (UniProt P06127 25-495, limits assumed)
T1 sequence (looked up): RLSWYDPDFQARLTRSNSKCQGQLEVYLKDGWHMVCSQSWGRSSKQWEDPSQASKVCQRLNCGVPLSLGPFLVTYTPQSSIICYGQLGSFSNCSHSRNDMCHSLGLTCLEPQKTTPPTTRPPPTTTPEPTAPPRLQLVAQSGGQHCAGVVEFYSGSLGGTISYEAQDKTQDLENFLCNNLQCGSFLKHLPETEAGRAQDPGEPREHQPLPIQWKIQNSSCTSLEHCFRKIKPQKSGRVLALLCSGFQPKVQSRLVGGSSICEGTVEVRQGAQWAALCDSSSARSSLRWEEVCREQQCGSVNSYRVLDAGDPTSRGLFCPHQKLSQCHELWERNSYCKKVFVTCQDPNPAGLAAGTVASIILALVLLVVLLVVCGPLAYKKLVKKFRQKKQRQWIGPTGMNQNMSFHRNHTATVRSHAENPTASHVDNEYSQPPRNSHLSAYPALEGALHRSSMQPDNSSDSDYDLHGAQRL

T2: control CD19 protein (UniProt P15391 20-291, limits assumed)
T2 sequence (looked up): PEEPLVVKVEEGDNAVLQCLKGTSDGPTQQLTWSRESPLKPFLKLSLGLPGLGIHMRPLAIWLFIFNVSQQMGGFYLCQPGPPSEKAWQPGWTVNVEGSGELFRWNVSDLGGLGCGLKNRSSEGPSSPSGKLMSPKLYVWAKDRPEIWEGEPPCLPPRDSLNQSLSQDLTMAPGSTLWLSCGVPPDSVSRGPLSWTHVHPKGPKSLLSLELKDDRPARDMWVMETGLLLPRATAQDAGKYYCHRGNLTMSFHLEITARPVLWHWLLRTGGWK

B1: E6-aerolysin fusion protein (other)
chain: MVKQIESKTAFQEALDAAGDKLVVVDFSATNTIKHGGSRWSGPSKMIKPFFHSLSEKYSNVIFLEVDVDDAQDVASEAEKGILVSPLPTFQFFKKGQKVGEFSGANKEKLEATINELVGEIPTLSALDIPDGDEVDVQWRLVHDSANFIKPTSYLAHYLGYAWVGGNHSQYVGEDMDVTRDGDGWVIRGNNDGGCDGYRCGDKTAIKVSNFAYNLDPDSFKHGDVTQSDRQLVKTVVGWAVNDSDTPQSGYDVTLRYDTATNWSKTNTYGLSEKVTTKNKFKWPLVGETELSIEIAANQSWASQNGGSTTTSLSQSVRPTVPARSKIPVKIELYKADISYPYEFKADVSYDLTLSGFLRWGGNAWYTHPDNRPNWNHTFVIGPYKDKASSIRYQWDKRYIPGEVKWWDWNWTIQQNGLSTMQNNLARVLRPVRAGITGDFSAESQFAGNIEIGAPVPLAADSKVRRARSVDGAGQGLRLEIPLDAQELSGLGFNNVSLSVTPAANQ
modifications: labelled with NHS-fluorescein for FACS (sites not given)
B2: HSA binder E1 (TRX-3 library), phage-displayed (designed binder)
chain: MVKQIESKTAFQEALDAAGDKLVVVDFSATRSENDRWNEWSGPSKMIKPFFHSLSEKYSNVIFLEVDVDDAQDVASEALIAGPFWYSPTFQFFKKGQKVGEFSGANKEKLEATINELV
notes: AGPF loop 3′ motif
B3: HSA binder G5 (TRX-3 library), phage-displayed (designed binder)
chain: MVKQIESKTAFQEALDAAGDKLVVVDFSATRLRTGGHPYWSGPSKMIKPFFHSLSEKYSNVIFLEVDVDDAQDVASEAVYVSLSRHRPTFQFFKKGQKVGEFSGANKEKLEATINELV
B4: CD5 binder E10 (TRX-3 library) (designed binder)
chain: MVKQIESKTAFQEALDAAGDKLVVVDFSATKERDSAWDDWSGPSKMIKPFFHSLSEKYSNVIFLEVDVDDAQDVASEAFYWSYPSLPPTFQFFKKGQKVGEFSGANKEKLEATINELV
B5: CD5 binder A5 (TRX-3 library) (designed binder)
chain: MVKQIESKTAFQEALDAAGDKLVVVDFSATQCNTGESHDWSGPSKMIKPFFHSLSEKYSNVIFLEVDVDDAQDVASEAWSPLIMCTMPTFQFFKKGQKVGEFSGANKEKLEATINELV
B6: CD5 binder E6 (TRX-3 library), phage-displayed (designed binder)
chain: MVKQIESKTAFQEALDAAGDKLVVVDFSATNTIKHGGSRWSGPSKMIKPFFHSLSEKYSNVIFLEVDVDDAQDVASEAEKGILVSPLPTFQFFKKGQKVGEFSGANKEKLEATINELV
notes: also called E6 phage
B7: HSA binder E5 (TRX-3 library), phage-displayed (designed binder)
chain: MVKQIESKTAFQEALDAAGDKLVVVDFSATRRNERARDWWSGPSKMIKPFFHSLSEKYSNVIFLEVDVDDAQDVASEALAAGPFYLLPTFQFFKKGQKVGEFSGANKEKLEATINELV
notes: AGPF loop 3′ motif
B8: CD5 binder A1 (TRX-3 library) (designed binder)
chain: MVKQIESKTAFQEALDAAGDKLVVVDFSATQWWGWIDGQWSGPSKMIKPFFHSLSEKYSNVIFLEVDVDDAQDVASEAYPLFGMAALPTFQFFKKGQKVGEFSGANKEKLEATINELV

Legend:
[1] = biological target: T1, CD5 expressed on the cell surface …; assay: cell-based or functional assay
rat serum albumin = biological target: T3, rat serum albumin (rat, UniProt P02770 25-608, biotinylated); assay: phage ELISA, RSA-biotin on streptavidin plate
T3 construct: also called RSA; RSA-biotin
T3 sequence (P02770 25-608 limits assumed): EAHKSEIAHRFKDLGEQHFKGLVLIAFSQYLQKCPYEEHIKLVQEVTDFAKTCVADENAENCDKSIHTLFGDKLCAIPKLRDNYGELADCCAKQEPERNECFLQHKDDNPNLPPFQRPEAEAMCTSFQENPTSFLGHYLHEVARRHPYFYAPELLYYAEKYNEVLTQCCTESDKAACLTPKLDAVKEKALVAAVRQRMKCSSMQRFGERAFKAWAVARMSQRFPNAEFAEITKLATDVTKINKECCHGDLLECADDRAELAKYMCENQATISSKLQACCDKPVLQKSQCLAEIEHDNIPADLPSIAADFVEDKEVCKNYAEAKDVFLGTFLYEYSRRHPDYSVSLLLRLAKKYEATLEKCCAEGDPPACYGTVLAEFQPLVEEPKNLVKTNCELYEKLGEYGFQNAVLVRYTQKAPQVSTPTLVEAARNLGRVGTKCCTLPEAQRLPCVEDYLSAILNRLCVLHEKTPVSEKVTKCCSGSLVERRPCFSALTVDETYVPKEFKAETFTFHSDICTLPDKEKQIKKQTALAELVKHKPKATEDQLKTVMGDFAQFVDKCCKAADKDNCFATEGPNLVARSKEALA

mouse serum albumin = biological target: T4, mouse serum albumin (mouse, UniProt P07724 25-608, biotinylated); assay: phage ELISA, MSA-biotin on streptavidin plate
T4 construct: also called MSA; MSA-biotin
T4 sequence (P07724 25-608 limits assumed): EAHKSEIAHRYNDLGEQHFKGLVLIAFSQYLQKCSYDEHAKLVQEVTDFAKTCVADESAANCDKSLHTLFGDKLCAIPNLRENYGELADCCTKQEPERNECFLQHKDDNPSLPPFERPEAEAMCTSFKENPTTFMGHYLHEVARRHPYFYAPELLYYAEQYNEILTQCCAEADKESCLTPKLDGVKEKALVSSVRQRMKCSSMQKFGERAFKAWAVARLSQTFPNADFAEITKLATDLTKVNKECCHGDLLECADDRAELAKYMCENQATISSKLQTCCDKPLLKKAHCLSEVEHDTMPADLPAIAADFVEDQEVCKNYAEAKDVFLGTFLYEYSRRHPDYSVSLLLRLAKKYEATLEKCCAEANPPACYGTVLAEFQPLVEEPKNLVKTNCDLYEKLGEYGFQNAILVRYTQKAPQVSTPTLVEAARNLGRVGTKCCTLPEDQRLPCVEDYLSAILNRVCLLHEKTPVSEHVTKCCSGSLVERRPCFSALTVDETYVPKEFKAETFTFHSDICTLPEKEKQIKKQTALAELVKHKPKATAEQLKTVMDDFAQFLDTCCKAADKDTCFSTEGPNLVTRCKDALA

control CD19 protein = biological target: T2, control CD19 protein; assay: phage ELISA
[2] = biological target: T5, streptavidin (streptavidin coated plate, wells without immobilized CD5) (UniProt P22629 37-163, limits assumed); assay: phage ELISA, streptavidin coated wells without immobilized CD5
T5 construct: also called control streptavidin
T5 sequence (P22629 37-163 limits assumed): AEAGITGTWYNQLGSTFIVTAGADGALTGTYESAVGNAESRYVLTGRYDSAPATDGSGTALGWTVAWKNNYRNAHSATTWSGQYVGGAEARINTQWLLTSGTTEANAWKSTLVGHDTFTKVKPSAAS

Binder | binding result (rat serum albumin) | binding result (mouse serum albumin) | binding result (control CD19 protein) | also measured
B1 |  |  |  | EC50, MTS cytotoxicity assay on CD5+ Raji cells, 48 hours [1]: 132 nM
B2 | no binding | no binding |  | 
B3 | no binding | no binding |  | 
B4 |  |  | no binding | 
B5 |  |  | no binding | 
B6 |  |  |  | binding result [2]: no binding
B7 | no binding | no binding |  | 
B8 |  |  | no binding | 
